Test results taken from patent US20110301335A1 (published 2011).
Residue numbers refer to the chain shown, from its start.

T1: human TNFR1 on MRC-5 cells (human, UniProt P19438 30-455)
T1 sequence (looked up): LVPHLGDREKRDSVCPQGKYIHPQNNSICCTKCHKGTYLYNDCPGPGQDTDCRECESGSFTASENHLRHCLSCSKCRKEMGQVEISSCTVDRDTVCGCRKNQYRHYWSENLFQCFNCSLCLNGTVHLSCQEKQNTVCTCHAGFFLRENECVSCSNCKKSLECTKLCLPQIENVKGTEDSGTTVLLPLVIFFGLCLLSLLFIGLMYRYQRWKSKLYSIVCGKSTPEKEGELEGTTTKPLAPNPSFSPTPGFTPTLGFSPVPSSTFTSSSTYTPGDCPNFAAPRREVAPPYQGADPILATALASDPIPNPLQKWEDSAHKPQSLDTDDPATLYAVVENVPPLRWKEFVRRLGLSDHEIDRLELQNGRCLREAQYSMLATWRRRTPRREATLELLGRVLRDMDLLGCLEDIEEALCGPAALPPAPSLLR

T2: human TNFR1 (R&D systems, cat no. 636-R1/CF) (human, UniProt P19438 30-211, limits assumed, biotinylated with EZ-Link NHS-LC-LC-biotin where coated on streptavidin chips; amine-coupled in the Table 2 experiment)
T2 construct: bought soluble recombinant protein; also called hTNFR1; p55
T2 sequence (looked up): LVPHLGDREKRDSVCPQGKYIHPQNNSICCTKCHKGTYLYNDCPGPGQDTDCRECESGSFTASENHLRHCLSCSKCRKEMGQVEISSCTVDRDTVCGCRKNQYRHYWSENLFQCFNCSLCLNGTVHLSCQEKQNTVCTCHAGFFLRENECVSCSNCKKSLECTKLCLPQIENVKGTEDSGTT

B1: DMS0114 (bispecific antibody, V domains shown)
VH: EVQLLESGGGLVQPGGSLRLSCAASGFTFVKYSMGWVRQAPGKGLEWVSQISNTADRTYYAHSVKGRFTISRDNSKNTLYLQMNSLRAEDTAVYYCAIYTGRWRPFEYWGQGTLVTVSS
B2: DMS0117 (bispecific antibody, V domains shown)
VH: B1 VH with N53D, A55G, T58R, A61D, H62D, R104K
B3: DMS0122 (bispecific antibody, V domains shown)
VH: B1 VH with N53D, A55G, T58R, A61D, H62D, R104A
B4: DOM1h-574-19 (other)
VH: B1 VH with V30G, G44D, A55G, R57H, H62D, R104E, E107D
B5: DOM1h-574-11 (other)
VH: B1 VH with A55G, D56G, R57H, H62D, I98K, R104E, E107D, Y108H
B6: DOM1h-574-17 (other)
VH: B1 VH with L45P, A55G, R57H, H62D, R104E, E107D
B7: DOM1h-574-13 (other)
VH: B1 VH with A55G, H62D, I98K, R104E, E107D
B8: DOM1h-574-12 (other)
VH: B1 VH with A55G, R57H, H62D, I98K, R104E, E107D
B9: DOM1h-574-16 (other)
VH: B1 VH with L45P, A55G, H62D, R104E, E107D
B10: DOM1h-574-18 (other)
VH: B1 VH with V30G, G44D, A55G, H62D, R104E, E107D
B11: DOM1h-574-15 (other)
VH: B1 VH with A55G, R57H, H62D, R104E, E107D
B12: DOM1h-574-7 (other)
VH: B1 VH with A55G, D56G, R57H, H62D, R104E, E107D
notes: anti-TNFR1 dAb (VH) from error-prone test maturation; expressed from pDOM5 (myc tag not included here)
B13: DOM1h-574-10 (other)
VH: B1 VH with V30G, G44D, A55G, D56G, R57H, H62D, R104E, E107D
notes: as for B12
B14: DMS0132 (bispecific antibody)
chain: EVQLLESGGGLVQPGGSLRLSCAASGFTFVKYSMGWVRQAPGKGLEWVSQISDTADRTYYAHSVKGRFTISRDNSKNTLYLQMNSLRAEDTAVYYCAIYTGRWVPFEYWGQGTLVTVSSASTDIQMTQSPSSLSASVGDRVTITCRASRPIGTTLSWYQQKPGKAPKLLILWNSRLQSGVPSRFSGSGSGTDFTLTISSLQPEDFATYYCAQAGTHPTTFGQGTKVEIKR
B15: DMS0135 (bispecific antibody)
chain: B14 chain with V30F, A61S
B16: DMS0133 (bispecific antibody)
chain: B14 chain with V30F, V104A
B17: DMS0134 (bispecific antibody)
chain: B14 chain with V30F

Molecular target: T1, human TNFR1 on MRC-5 cells
Assay: cell-based or functional assay

| MRC5 (ND50 in nM) | Molecule |
| --- | --- |
| 3.7 nM | B1 |
| 25.9 nM | B2 |
| 1.5 nM | B3 |

Molecular target: T1, human TNFR1 on MRC-5 cells
Assay: cell-based or functional assay
Remark: another data set of the same source

| MRC-5 EC50 | Molecule |
| --- | --- |
| 0.14 µM | B4 |
| 0.8 µM | B5 |
| 0.02 µM | B6 |
| 0.3 µM | B7 |
| 0.13 µM | B8 |
| 0.008 µM | B9 |
| 0.017 µM | B10 |
| 0.3 µM | B11 |

Molecular target: T2, human TNFR1 (R&D systems, cat no. …)
Assay: BIAcore screening of supernatants

| binding result | Molecule |
| --- | --- |
| binds | B12 |
| binds | B13 |

Molecular target: human TNFR1 (R&D systems, cat no. 636-R1/CF) (human) (UniProt P19438)
Assay: BIAcore sequential injection on biotinylated human TNFR1; competitor DOM1h-574-16

| percent less binding after DOM1h-574-16 | Molecule |
| --- | --- |
| 20% | mAb Clone 4.12 (Invitrogen, cat. no. Zymed 33-0100) (antibody) |

Molecular target: T1, human TNFR1 on MRC-5 cells
Assay: cell-based or functional assay
Remark: another data set of the same source

| MRC5 ND50 | Molecule |
| --- | --- |
| 1.04 nM | B14 |
| 1.17 nM | B15 |
| 0.99 nM | B16 |
| 0.96 nM | B17 |

Molecular target: mouse TNFR1 on L929 cells (mouse) (UniProt P25118)
Assay: cell-based or functional assay

Chain of mouse TNFR1 on L929 cells (mouse) (P25118 30-454): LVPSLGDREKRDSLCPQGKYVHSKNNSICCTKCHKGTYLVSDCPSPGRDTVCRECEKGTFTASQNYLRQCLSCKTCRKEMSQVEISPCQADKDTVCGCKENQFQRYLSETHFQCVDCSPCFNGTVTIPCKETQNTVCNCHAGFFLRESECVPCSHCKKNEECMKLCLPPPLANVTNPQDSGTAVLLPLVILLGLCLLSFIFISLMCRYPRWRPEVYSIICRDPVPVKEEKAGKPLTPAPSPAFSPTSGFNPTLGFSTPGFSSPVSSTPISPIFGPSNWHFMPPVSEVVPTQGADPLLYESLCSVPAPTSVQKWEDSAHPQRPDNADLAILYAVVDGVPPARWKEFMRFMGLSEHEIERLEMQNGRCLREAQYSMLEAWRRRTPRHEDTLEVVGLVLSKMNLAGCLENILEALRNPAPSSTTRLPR

| L929 ND50 | Molecule |
| --- | --- |
| 6.8 nM | B14 |
| 5.9 nM | B15 |
| 4.2 nM | B16 |
| 6.52 nM | B17 |
